Patent publication US20110008351A1 (UNIVERSITE LIBRE DE BRUXELLES, published 2011)

Target: T1, purified human properdin (human, UniProt P27918 28-469)
T1 construct: also called factor P
Assay: ELISA, properdin coated, normalized 293T supernatants, anti-V5 detection

T1 sequence (P27918 28-469 limits assumed): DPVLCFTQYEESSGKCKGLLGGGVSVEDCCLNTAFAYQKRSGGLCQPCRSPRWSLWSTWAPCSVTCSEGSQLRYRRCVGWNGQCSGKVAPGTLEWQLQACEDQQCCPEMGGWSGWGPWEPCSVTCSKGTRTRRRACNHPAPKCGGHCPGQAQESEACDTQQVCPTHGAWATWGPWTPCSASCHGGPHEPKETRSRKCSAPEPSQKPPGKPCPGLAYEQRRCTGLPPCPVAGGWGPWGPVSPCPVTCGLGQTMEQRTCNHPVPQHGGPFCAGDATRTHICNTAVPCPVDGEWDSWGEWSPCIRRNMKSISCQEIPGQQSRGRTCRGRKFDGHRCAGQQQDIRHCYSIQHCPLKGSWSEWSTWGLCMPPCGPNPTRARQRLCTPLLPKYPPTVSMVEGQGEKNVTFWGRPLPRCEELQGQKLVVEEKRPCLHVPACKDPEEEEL

B1: recombinant Rhipicephalus appendiculatus histamine-binding protein 2 (RaHBP2) (other, UniProt O77421 20-190, looked up, not shown: small tags and cut ends)
chain: NQPDWADEAANGAHQDAWKSLKADVENVYYMVKATYKNDPVWGNDFTCVGVMANDVNEDEKSIQAEFLFMNNADTNMQFATEKVTAVKMYGYNRENAFRYETEDGQVFTDVIAYSDDNCDVIYVPGTDGNEEGYELWTTDYDNIPANCLNKFNEYAVGRETRDVFTSACLE
notes: Negative control, supernatant of transfected 293T cells
B1: no binding.
